Data: patent EP4682166A1 (Guangzhou Enmai Biotechnology Co., Ltd, dated 2026)

T1: human NMI (N-myc Interacting protein) (human, UniProt Q13287 1-307, limits assumed)
T1 construct: Immunogen and ELISA coating antigen; also called hNMI; antigen 1
T1 sequence (looked up): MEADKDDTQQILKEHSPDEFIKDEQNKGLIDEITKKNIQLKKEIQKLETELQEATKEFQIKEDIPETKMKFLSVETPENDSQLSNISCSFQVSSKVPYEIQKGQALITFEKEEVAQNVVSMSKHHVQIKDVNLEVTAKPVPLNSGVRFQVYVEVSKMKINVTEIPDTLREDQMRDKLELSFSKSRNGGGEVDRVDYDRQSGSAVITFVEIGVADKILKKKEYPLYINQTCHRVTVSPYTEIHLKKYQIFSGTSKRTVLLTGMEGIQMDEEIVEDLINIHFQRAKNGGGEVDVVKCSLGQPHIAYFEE


What was measured:
[1] = target: T1, human NMI (N-myc Interacting protein); test: I-ELISA, hNMI coated 1 ug/mL; antibody 4.8828125 ng/mL
[2] = target: T1, human NMI (N-myc Interacting protein); test: indirect ELISA, human NMI coated; supernatant 1/27
[3] = target: T1, human NMI (N-myc Interacting protein); test: I-ELISA, hNMI coated 1 ug/mL; antibody 78.125 ng/mL
[4] = target: T1, human NMI (N-myc Interacting protein); test: sandwich ELISA; coating antibody 2.5 ug/mL, detection 94C4-biotin 0.5 ug/mL
[5] = target: T1, human NMI (N-myc Interacting protein); test: I-ELISA, hNMI coated 1 ug/mL; antibody 1250 ng/mL
[6] = target: T1, human NMI (N-myc Interacting protein); test: indirect ELISA, human NMI coated; supernatant undiluted
[7] = target: T1, human NMI (N-myc Interacting protein); test: I-ELISA, hNMI coated 1 ug/mL; antibody 156.25 ng/mL
[8] = target: T1, human NMI (N-myc Interacting protein); test: I-ELISA, hNMI coated 1 ug/mL; antibody 2500 ng/mL
[9] = target: T1, human NMI (N-myc Interacting protein); test: I-ELISA, hNMI coated 1 ug/mL; antibody 312.5 ng/mL
[10] = target: T1, human NMI (N-myc Interacting protein); test: indirect ELISA, human NMI coated; supernatant 1/19683
[11] = target: T1, human NMI (N-myc Interacting protein); test: I-ELISA, hNMI coated 1 ug/mL; antibody 39.0625 ng/mL
[12] = target: T1, human NMI (N-myc Interacting protein); test: indirect ELISA, human NMI coated; supernatant 1/729
[13] = target: T1, human NMI (N-myc Interacting protein); test: indirect ELISA, human NMI coated; supernatant dilution series
[14] = target: T1, human NMI (N-myc Interacting protein); test: indirect ELISA, human NMI coated; supernatant 1/9
[15] = target: T1, human NMI (N-myc Interacting protein); test: indirect ELISA, human NMI coated; supernatant 1/59049
[16] = target: T1, human NMI (N-myc Interacting protein); test: I-ELISA, hNMI coated 1 ug/mL; antibody 19.53125 ng/mL
[17] = target: T1, human NMI (N-myc Interacting protein); test: indirect ELISA, human NMI coated; supernatant 1/243
[18] = target: T1, human NMI (N-myc Interacting protein); test: I-ELISA, hNMI coated 1 ug/mL; antibody 2.4414063 ng/mL
[19] = target: T1, human NMI (N-myc Interacting protein); test: indirect ELISA, human NMI coated; supernatant 1/81
[20] = target: T1, human NMI (N-myc Interacting protein); test: I-ELISA, hNMI coated; upper end of the group's range, tied to 98G10 by Table 17
[21] = target: T1, human NMI (N-myc Interacting protein); test: indirect ELISA, human NMI coated; supernatant 1/6561
[22] = target: T1, human NMI (N-myc Interacting protein); test: indirect ELISA, human NMI coated; supernatant 1/2187
[23] = target: T1, human NMI (N-myc Interacting protein); test: I-ELISA, hNMI coated 1 ug/mL; antibody 1.2207031 ng/mL
[24] = target: T1, human NMI (N-myc Interacting protein); test: indirect ELISA, human NMI coated; supernatant 1/3
[25] = target: T1, human NMI (N-myc Interacting protein); test: I-ELISA, hNMI coated 1 ug/mL; antibody 625 ng/mL
[26] = target: T1, human NMI (N-myc Interacting protein); test: indirect ELISA, human NMI coated (repeats Table 1)
[27] = target: T1, human NMI (N-myc Interacting protein); test: I-ELISA, hNMI coated 1 ug/mL; antibody 9.765625 ng/mL
[28] = target: T1, human NMI (N-myc Interacting protein); test: I-ELISA, hNMI coated; lower end of the group's range, tied to 94C4 by Table 17

| Binder | OD450 [1] [OD450] | ELISA OD [2] [OD] | OD450 [3] [OD450] | OD450 [5] [OD450] | ELISA OD [6] [OD] | OD450 [7] [OD450] | OD450 [8] [OD450] | OD450 [9] [OD450] | ELISA OD [10] [OD] | OD450 [11] [OD450] | ELISA OD [12] [OD] | EC50 [13] [ng/mL] | ELISA OD [14] [OD] | ELISA OD [15] [OD] | OD450 [16] [OD450] | ELISA OD [17] [OD] | OD450 [18] [OD450] | ELISA OD [19] [OD] | ELISA OD [21] [OD] | ELISA OD [22] [OD] | also measured |
| --- | --- | --- | --- | --- | --- | --- | --- | --- | --- | --- | --- | --- | --- | --- | --- | --- | --- | --- | --- | --- | --- |
| 98G10 (antibody, V domains shown, Rabbit monoclonal antibody; also called 98G10-1; 98G10-1-biotin (biotin-labelled form)) VH: QEQLEESGGDLVKPEGSLTLTCTASGFSFSASYWICWVRQAPGKGLEWIACIYGGSSGSAYYASWAKGRFTISKTSSTTVTLQMTSLTAADTATYFCARAGYYNYGSAGDIYPSSFKLWGPGTLVTVSS VL: DIVMTQTPASVEAAVGGTVTINCQASQSISTALAWYQQKPGQPPKLLIYTASKVASGVPSRFSGSGSGTQFTLTISDLECADAATYYCQNYYYSSSSITFGGGTEVVVK | 0.115 | 3.32 | 1.18 | 2.15 | 3.45 | 1.71 | 2.17 | 1.97 | 0.528 | 0.67 | 2.48 | 1.22 | 3.39 | 0.237 | 0.41 | 2.97 | 0.081 | 3.29 | 1.07 | 1.72 | detection limit (sensitivity) [4]: 60 pg/mL; EC50 [20]: 70 ng/mL; OD450 [23]: 0.065 OD450; ELISA OD [24]: 3.45 OD; OD450 [25]: 2.08 OD450; EC50 [26]: 1.22 ng/mL; OD450 [27]: 0.217 OD450 |
| 94C4 (antibody, V domains shown, Rabbit monoclonal antibody; also called 94C4-1; 94C4-1-biotin (biotin-labelled form)) VH: QSLEESGGGLVQPEGSLTLTCKASGFDFSSNAMCWVRQAPGKGLEWIACISSASSGSSGSTYYASWAKGRFTISKTSSTTVTLQMTSLTAADMATYFCARDGYDLWGPGTLVTVSS VL: QVLTQTPSSVSAAVGGTVTISCQSSPSVYNNYLSWFQQKPGQSPKLLIYRVSTLASGVPSRFSGSGSGTQFTLTISGVQCDDAATYYCAGGYDSASDTYVFGGGTEVVVK | 0.262 | 3.47 | 1.64 | 2.19 | 3.46 | 1.93 | 2.17 | 2.1 | 1.28 | 1.22 | 2.98 | 0.189 | 3.58 | 0.585 | 0.833 | 3.29 | 0.142 | 3.43 | 2.15 | 2.48 | EC50 [28]: 30 ng/mL; OD450 [23]: 0.092 OD450; ELISA OD [24]: 3.5 OD; OD450 [25]: 2.19 OD450; EC50 [26]: 0.189 ng/mL; OD450 [27]: 0.482 OD450 |
